Experimental data: article PMC2845643 (2011)

Legend:
Test in all cases: IAANS fluorescence titration
[1] = target: cardiac troponin C (L48Q TnC IAANS T53C) (Homo sapiens, UniProt P63316)
[2] = target: cardiac troponin C (V44Q TnC IAANS T53C) (Homo sapiens, UniProt P63316)
[3] = target: cardiac troponin C (M45Q TnC IAANS T53C) (Homo sapiens, UniProt P63316)
[4] = target: cardiac troponin C (F20Q TnC IAANS T53C) (Homo sapiens, UniProt P63316)
[5] = target: cardiac troponin C (TnC IAANS T53C) (Homo sapiens, UniProt P63316)

B1: cardiac troponin I peptide TnI128-180 128-180 (protein)
chain: LTQKIFDLRGKFKRPTLRRVRISADAMMQALLGARAKESLDLRAHLKQVKKED
Kd [1]: 268 nM | Kd [2]: 262 nM | Kd [3]: 289 nM | Kd [4]: 318 nM | Kd [5]: 200 nM
